From patent US20110206616A1

Molecular target: SNAP 25 (endogenous, rat neuronal cells) (rat) (UniProt P60881)
Experiment: cell-based or functional assay

Chain of UniProt P60881 (P60881 whole entry): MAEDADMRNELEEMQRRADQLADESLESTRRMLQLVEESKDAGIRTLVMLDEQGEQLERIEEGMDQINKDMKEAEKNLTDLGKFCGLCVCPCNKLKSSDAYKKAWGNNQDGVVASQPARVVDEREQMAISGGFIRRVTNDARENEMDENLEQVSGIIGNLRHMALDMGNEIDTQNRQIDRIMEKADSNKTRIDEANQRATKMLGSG

BoNT/Aad^ek, AcTEV- and enterokinase-processed disulfide-bonded LC-HC heterodimer (from UniProt P0DPI1 2-449; P0DPI0 449-1296)
cleavage of intracellular SNAP 25 (none detectable at the concentration tested): 500 nM
